Reference: publication PMC10302166, “Molecular basis and dual ligand regulation of tetrameric estrogen receptor α/14-3-3ζ protein complex” (The Journal of Biological Chemistry, 2023)
One block for each molecule: values may come before it. Where no end group is shown, it is not given here. [ ]: non-standard residue; d: D form. pT = C[C@@H](OP(=O)(O)O)[C@H](N)C(=O)O

Legend:
[1] = target: fluorescein-labeled SRC-1 cofactor peptide (LXXLL motif of SRC-1/NCoA-1); assay: fluorescence polarisation; as a10 but in the presence of 100 μM E2; apparent KD
[2] = target: fluorescein-labeled SRC-1 cofactor peptide (LXXLL motif of SRC-1/NCoA-1); assay: fluorescence polarisation; fluorescence anisotropy; ERα or complex titrated (2-fold series from 40 μM ERα) to 20 nM fluorescein-labeled SRC1 peptide; DMSO control; 20 mM HEPES pH 7.5, 150 mM NaCl, 10 mM MgCl2, 0.1% Tween20, 0.1% BSA; room temperature; apparent KD (4PL fit)
14-3-3ζ-strep [3] = target: T1, 14-3-3ζ-strep (human, UniProt P63104 1-245); assay: quantitative LC-QToF-MS of the purified complex; concentrations of 14-3-3ζ and ERα in dilutions of the purified complex read from calibration series of 14-3-3ζ-strep and ERα-pT594-strep
T1 chain: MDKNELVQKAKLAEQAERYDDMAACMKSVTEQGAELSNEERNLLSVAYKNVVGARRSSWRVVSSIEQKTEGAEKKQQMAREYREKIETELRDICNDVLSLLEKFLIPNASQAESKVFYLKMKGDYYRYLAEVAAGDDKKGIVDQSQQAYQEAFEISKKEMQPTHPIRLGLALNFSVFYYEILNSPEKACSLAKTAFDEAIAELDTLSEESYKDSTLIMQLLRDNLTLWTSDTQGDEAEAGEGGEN

[4] = target: ERα LBD-F domain, PKA-responsive (F591R/P592R), phosphorylated at T594, as in the co-purified ERα/14-3-3ζ complex after SUMO cleavage (human (from the printed UniProt entry)) (UniProt P03372); assay: AUC; sedimentation velocity, 20 °C, 20 mM HEPES pH 7.5, 150 mM NaCl, 10 mM MgCl2, 0.5 mM TCEP; 10 μM single proteins, 10 or 30 μM complex; complex also with added 14-3-3ζ (up to six equivalents) or 20 μM E2 or 4-OHT; KD estimated from peak areas (KD = [A][B]/[AB]), dimer to dimer
14-3-3ζ-strep [5] = target: T1, 14-3-3ζ-strep; assay: as above
[6] = target: T2, ERα(PKA)-strep phosphopeptide (fluorescein-labeled, pT594, with C-terminal strep-tag) (human (from the printed UniProt entry)); assay: fluorescence polarisation; as a13 in the presence of a 2-fold dilution series of 3′de-Ac FC-A (0.015–250 μM); cooperativity analysis of the ternary 14-3-3/peptide/FC-A complex
[7] = target: ERα(PKA) phosphopeptide (fluorescein-labeled C-terminal peptide mimic with F591R/P592R, pT594) (human (from the printed UniProt entry)); assay: as above
[8] = target: T2, ERα(PKA)-strep phosphopeptide (fluorescein-labeled, pT594, with C-terminal strep-tag) (human); assay: fluorescence polarisation; fluorescence anisotropy; 14-3-3ζ titrated (2-fold series from 300 μM) to 2 nM fluorescein-labeled ERα peptide; 20 mM HEPES pH 7.5, 150 mM NaCl, 10 mM MgCl2, 0.1% Tween20, 0.1% BSA; room temperature; apparent
[9] = target: T3, 14-3-3ζ-strep (human), P63104; assay: SEC; analytical SEC, Superdex200 increase 3.2/300, 20 mM Tris pH 7.5, 150 mM NaCl, 10 mM MgCl2, 0.5 mM TCEP; 10 μM 14-3-3ζ, 10 μM ERα-strep, 20 μM complex; BSA as size reference; details: remark: other sources report otherwise
T3 chain: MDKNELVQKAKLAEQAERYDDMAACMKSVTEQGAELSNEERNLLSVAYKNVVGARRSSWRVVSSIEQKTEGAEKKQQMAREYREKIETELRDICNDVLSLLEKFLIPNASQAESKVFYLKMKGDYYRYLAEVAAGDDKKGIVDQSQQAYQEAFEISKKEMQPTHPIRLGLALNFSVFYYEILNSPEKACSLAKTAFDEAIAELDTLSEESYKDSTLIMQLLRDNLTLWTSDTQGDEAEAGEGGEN

[10] = target: T3, 14-3-3ζ-strep (human), P63104; assay: AUC; sedimentation velocity, 20 °C, 20 mM HEPES pH 7.5, 150 mM NaCl, 10 mM MgCl2, 0.5 mM TCEP; 10 μM single proteins, 10 or 30 μM complex; complex also with added 14-3-3ζ (up to six equivalents) or 20 μM E2 or 4-OHT; KD estimated from peak areas (KD = [A][B]/[AB]), dimer to dimer; details: remark: other sources report otherwise
14-3-3ζ-strep [11] = target: T1, 14-3-3ζ-strep; assay: FP
14-3-3ζ-strep [12] = target: T1, 14-3-3ζ-strep; assay: FP
[13] = target: the molecule itself; assay: SEC; analytical SEC, Superdex200 increase 3.2/300, 20 mM Tris pH 7.5, 150 mM NaCl, 10 mM MgCl2, 0.5 mM TCEP; 10 μM 14-3-3ζ, 10 μM ERα-strep, 20 μM complex; BSA as size reference

Kd [1]: 600 nM | Kd [2]: 9600 nM
Molecule: ERα/14-3-3ζ protein complex (tetramer of an ERα homodimer and a 14-3-3ζ homodimer) (from UniProt P03372 302-595; P63104 1-245)

stoichiometry N [4]: 2 | Kd (14-3-3ζ-strep [5]): 32 nM | stoichiometry N (ERα:14-3-3ζ (2:2)) (14-3-3ζ-strep [5]): 1
Molecule: ERα LBD-F domain, PKA-responsive (F591R/P592R), phosphorylated at T594, as in the co-purified ERα/14-3-3ζ complex after SUMO cleavage (from UniProt P03372 302-595) (domain or fragment)
stoichiometry N (14-3-3ζ-strep [3]): 1 ERα:14-3-3ζ

cooperativity factor (α) of FC-A stabilisation [6]: 15 | cooperativity factor (α) of FC-A stabilisation [7]: 366 | fold reduction in binding affinity against the ERα peptide without strep-tag [8]: 50 fold
Molecule: 14-3-3ζ-strep (from UniProt P63104 1-245) (natural protein)

stoichiometry N [9]: 2 | stoichiometry N [10]: 2
B1: 14-3-3ζ-strep, P63104 1-245 (natural protein)
chain: MDKNELVQKAKLAEQAERYDDMAACMKSVTEQGAELSNEERNLLSVAYKNVVGARRSSWRVVSSIEQKTEGAEKKQQMAREYREKIETELRDICNDVLSLLEKFLIPNASQAESKVFYLKMKGDYYRYLAEVAAGDDKKGIVDQSQQAYQEAFEISKKEMQPTHPIRLGLALNFSVFYYEILNSPEKACSLAKTAFDEAIAELDTLSEESYKDSTLIMQLLRDNLTLWTSDTQGDEAEAGEGGEN

Kd (14-3-3ζ-strep [11]): 300 nM
Molecule: AEGRRA[pT]V (also: fluorescein label, position not given here) [ERα(PKA) phosphopeptide (fluorescein-labeled C-terminal peptide mimic with F591R/P592R, pT594)]

Kd (14-3-3ζ-strep [12]): 14000 nM
Molecule: AEGRRA[pT]VPWSHPQFEK (also: fluorescein label, position not given here) [ERα(PKA)-strep phosphopeptide (fluorescein-labeled, pT594, with C-terminal strep-tag)]

B2: ERαLBD-F-strep (PKA-responsive, non-phosphorylated) (domain or fragment, human (from the printed UniProt entry), UniProt P03372 302-595, looked up)
chain: KKNALALSLTADQMVSALLDAEPPILYSEYDPTRPFSEASMMGLLTNLADRELVHMINWAKRVPGFVDLTLHDQVHLLECAWLEILMIGLVWRSMEHPGKLLFAPNLLLDRNQGKCVEGMVEIFDMLLATSSRFRMMNLQGEEFVCLKSIILLNSGVYTFLSSTLKSLEEKDHIHRVLDKITDTLIHLMAKAGLTLQQQHQRLAQLLLILSHIRHMSNKGMEHLYSMKCKNVVPLYDLLLEMLDAHRLHAPTSRGGASVEETDQSHLATAGSTSSHSLQKYYITGEAEGRRATV
notes: also called ERα-strep; ERα(PKA)-strep; source: E. coli NiCo21 (DE3), purified (Ni-NTA, SUMO cleavage, Strep-Tactin, SEC); not shown: His tag, N-terminal, cleaved; SUMO, N-terminal, cleaved; strep-tag, C-terminal, kept
stoichiometry N [13]: 2

Kd (14-3-3ζ-strep [11]): 2200 nM
Molecule: AEGFPA[pT]V (also: fluorescein label, position not given here) [WT ERα phosphopeptide (fluorescein-labeled C-terminal peptide mimic, pT594)]
